Data reported in patent US20100087005A1, “AUXILIARY REAGENT FOR GENE TRANSFER” (priority 2006, published 2010).

Tested on: transgenic mice overexpressing full-length Del-1
Test: In vivo gene transfer of human thermostable alkaline phosphatase gene (TransIT In Vivo Gene Delivery System) in Del-1 transgenic mice, serum AP activity
Design: species or system mouse
Conditions: tail vein injection of human thermostable alkaline phosphatase gene, serum 24 hours later, heat treated 65° C. 30 minutes, FIG. 5
Procedure: According to the ordinary method, transgenic mice in which cDNA of full-length Del-1 (i.e., DNA consisting of the nucleotide sequence represented by SEQ ID NO: 9) is overexpressed were prepared (see Hidai et al., Anatomical Record A, vol. 287A, pp. 1165-1175). Del-1 protein produced in cells of the transgenic mice is a protein having the amino acid sequence represented by SEQ ID NO: 10 (including the signal peptide). Del-1 protein secreted from the cells to the outside thereof is a protein having an amino acid sequence consisting of amino acid residues at positions 26 to 480 in the amino acid sequence represented by SEQ ID NO: 10 (excluding the signal peptide). […] Using 20 μl of serum after the heat treatment, the activity of exogenous alkaline phosphatase (human thermostable alkaline phosphatase) was measured. In the measurement of the activity, 20 μl of serum was mixed with 200 μl of 1 mg/ml p-nitrophenyl phosphate, and after causing reaction at room temperature for 30 minutes to 1 hour, the absorbance at 405 nm was measured using a […] (BioRad). […]
Measurement values of the alkaline phosphatase activity are expressed by average value±SEM (standard error of the mean). The measurement values obtained from the control group into which alkaline phosphatase gene was not injected are regarded as 1, and the measurement values of the transgenic mice were calculated based thereon.

B1: full-length Del-1: Del-1 protein, SEQ ID NO: 10, overexpressed in transgenic mice; secreted form residues 26 to 480 (protein, listed as Mus musculus)
chain: MKHLVAAWLLVGLSLGVPQFGKGDICNPNPCENGGICLSGLADDSFSCECPEGFAGPNCSSVVEVASDEEKPTSAGPCIPNPCHNGGTCEISEAYRGDTFIGYVCKCPRGFNGIHCQHNINECEAEPCRNGGICTDLVANYSCECPGEFMGRNCQYKCSGPLGIEGGIISNQQITASSTHRALFGLRKWYPYYARLNKKGLINAWTAAENDRWPWIQINLQRKMRVTGVITQGAKRIGSPEYIKSYKIAYSNDGKTWAMYKVKGTNEEMVFRGNVDNNTPYANSFTPPIKAQYVRLYPQICRRHCTLRMELLGCELSGCSEPLGMKSGHIQDYQITASSVFRTLNMDMFTWEPRKARLDKQGKVNAWTSGHNDQSQWLQVDLLVPTKVTGIITQGAKDFGHVQFVGSYKLAYSNDGEHWMVHQDEKQRKDKVFQGNFDNDTHRKNVIDPPIYARFIRILPWSWYGRITLRSELLGCAEEE
- exogenous alkaline phosphatase activity in serum, transgenic mouse (TG) vs wild-type mouse (WT): about twice as high as that of the wild-type mouse (WT)
